Reference: the RNAGym collection of RNA variant scans (doi:10.1073/pnas.2313332121)

B1: TPR t1 (parent)
chain: GACCAAUCUGCCCUCAGAGCUCGAGAACAUCUUCGGAUGCAGAGGAGGCAGGCUUCGGUGGCGCGAUAGCGCCAACGUCCUCAACCUCCAAUGCAUCCCACCACAUGAUGAUGCCUGAAGAGCCUUGGUUUUUUG

Variants of: B1
Assay: polymerase ribozyme fitness, log enrichment relative to wild type (log ratio); higher = more active; in vitro selection for triplet polymerase activity
Method in brief: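 Fitness is a logarithmic measure of how a genotype enriched relative to the wild type, with replicate averages weighted by inverse variance. The logarithm uses base 2, and enrichment came from Illumina sequencing of input and output libraries. Those libraries were PCR-built, transcribed mutants of each subunit of a heterodimeric triplet polymerase ribozyme, passed through one triplicate in vitro selection round that included frozen incubation at −7 °C, gel excision of extended constructs and streptavidin-bead capture. Genotypes were kept only if they had ≥10 input reads and ≥1 read per output.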

Variant | polymerase ribozyme fitness (log ratio)
GACCAAUCUGCCCUCAGAGCUCGAGAACAUCUUCGGAUGCAGUGGAGGCAGGCUUCGGUGGCGCGAUAGCGCUAACGUCCUCAACCUCCAAUGCAUCCCACCACAUGAUGAUGCCUGAAGAGCCUUGGUUUUUUG | -0.963
GACCAAUCUGCCCUCAGAGCUCGAGAACAUCUUCGGAUGCAGUGGAGGCAGGCUUCGGUGGCGCGAUAGCGCUAACGUCCUCAACUUCCAAUGCAUCCCACCACAUGAUGAUGCCUGAAGAGCCGUGGUUUUUUG | -2.65
GACCAAUCUGCCCUCAGAGCUCGAGAACAUCUUCGGAUGCAGUGGAGGCAGGCUUCGGUGGCGCGAUAGCGCCAACGUCCUCAACCUCCAAUGCAUCCAAGCACAUGAUAAUGCCUGAAGAGCCUUGGUUUUUUG | -7.09
GACCAAUCUGCCCUCAGAGCUCGAGAACAUCUUCGGAUGCAGUGGAGGCAGGCUUCGGUGGCGCGAUAGCGCCAACGUCCUCAACCUCCAAUGCAUCCCACAACAUGAUGAUGCCUGAAGAGCCUUGGUUUUUUG | -4.93
GACCAAUCUGCCCUCAGAGCUCGAGAACAUCUUCGGAUGCAGUGGAGGCAGGCUUCGGUGGCGCGAUAGCGCCAACGUCCUCAACCUCCAAUGCAUCCCACCAUAUGAUGAUGCCUGAAGAGCCUUGGUUUUUUG | -0.812
GACCAAUCUGCCCUCAGAGCUCGAGAACAUCUUCGGAUGCAGUGGAGGCAGGCUUCGGUGGCGCGAUAGCGCCAACGUCCUCAACCUCCAAUGCAUCCCACCACAUGAUGAUGCUUGAAGAGCCUUGGUUUUUUG | -1.87
GACCAAUCUGCCCUCAGAGCUCGAGAACAUCUUCGGAUGCAGUGGAGGCAGGCUUCGGUGGCGCGAUAGCGCCAACGUCCUCAACCUCCAAUGCAUCCCACCACAUGAUGAUGCCUGAAGAGACUUGCUUUUUUG | -2.79
GACCAAUCUGCCCUCAGAGCUCGAGAACAUCUUCGGAUGCAGUGGAGGCAGGCUUCGGUGGCGCGAUAGCGCCAACGUCCUCAACCUCCAAUGCAUCCCACCACAUGAUGAUGCCUGAAGAGGCUUCGUUUUUUG | -1.59
GACCAAUCUGCCCUCAGAGCUCGAGAACAUCUUCGGAUGCAGUAGAGGCAGGCUUCGGUGGCGCGAUUGAGCCAACGUCCUCAACCUCCAAUGCAUCCCACCACAUGAUGAUGCAUGAAGAGCACUGGUUUAUUG | -6.95
GACCAAUCUGCCCUCAGAGCUCGAGAACAUCUUCGGAUGCAGUAGAGGCAGGCUUCGGUGGCGCGAUAGCGCCAAGGUCCUCAACCUCCAAUGCAUCCCACCACAUGAUGCUGCCUGAAGAGCCUUGGUUUUUUG | -2.36
GACCAAUCUGCCCUCAGAGCUCGAGAACAUCUUCGGAUGCAGUAGAGGCAGGCUUCGGUGCCGCGAUAGCGCCAACGUCCUCACCCUCCUAUGCAUCCCACUACAUGAUGAUGCCUGAAGAGUCUUGGUUUUUUG | -4.59
GACCAAUCUGCCCUCAGAGCUCGAGAACAUCUUCGGAUGCAGUGCAGGUAGGCUUCGGUGUCGCGAUAGCGCCAACGUCCUCAACCUCCAAUGCAUCCCACCACAUGAUGAUGCCUGAAAAGCCUUGGUUUUUUG | -1.99
GACCAAUCUGCCCUCAGAGCUCGAGAACAUCUUCGGAUGCAGUGCAGGUAGGCUUCGGUGGCGCGAUAGCGCCAACGUCCUCAACCUCCAAUGCAUCCCACCACAUGAUGAUGCCUGAAAAGCCUUGGUUUUUUG | -3.19
GACCAAUCUGCCCUCAGAGCUCGAGAACAUCUUCGGAUGCAGUGGAGACAGGCUUCGGUGGCGCGAUAGCUCCAACGUCCUCAACCUCCAAUGCAUCCCACCACAUGAUGAAGCCUGAAGAGCCUUGGUUUUUUG | -1.51
GACCAAUCUGCCCUCAGAGCUCGAGAACAUCUUCGGAUGCAGUGGAGUCAGGCUUCGGUGGCGCGAUAGCGCCAACGUCCUCAACCUCCAAUGCAUCCCACCACAUGAUGAUGCCUGAAUAGCCUUGGUUUUUUG | -2.2
GACCAAUCUGCCCUCAGAGCUCGAGAACAUCUUCGGAUGCAGUGGAGGCAGGCUUCGGUAGCGCGAUAGCGCCAACGUCCUCAACCUCCAAUGCAUCCCACCACAUGAUGAUGCCUGAAGAGCCUUGGUUUUUUG | -1.98
GACCAAUCUGCCCUCAGAGCUCGAGAACAUCUUCGGAUGCAGUGGAGGCAGGCUUCGGUAGCGCGAUAGCGCCAACGUCCUCAACCUCCAAUGCAUCCCACCACAUGAUGAUGCCUGAACAGCCUUGGUUUUUUG | -1.01
GACCAAUCUGCCCUCAGAGCUCGAGAACAUCUUCGGAUGCAGUGGAGGCAGGCUUCGGUCGCGCGAUAGCGCCAACGUCCUGAACCUCCAAUGCAUCCCACCACAUGAUGAUGCCUGAAGAGCCUUGGUUUUUUG | -4.23
GACCAAUCUGCCCUCAGAGCUCGAGAACAUCUUCGGAUGCAGUGGAGGCAGGCUUCGGUGCCGCGAUAGCGCCAACGUCCUCAACCUCCAAUGCAUCCCACCACAUGAUGAUGCCUGAAGAGCCUUGGUUUUUUG | -4.42
GACCAAUCUGCCCUCAGAGCUCGAGAACAUCUUCGGAUGCAGUGGAGGCAGGCUUCGGUGUCGCGAUAGCGCCAACGUCCUCAACCUCCAAUGCAUCCCACCACAUGAUGAUGCCUGAAGAGCCUUGGUUUUUUG | -2.41
GACCAAUCUGCCCUCAGAGCUCGAGAACAUCUUCGGAUGCAGUGGAGGCAGGCUUCGGUGGCACGAUAGCGCCAACGUCCUCAACCUCCAAUGCAUCCCACCACAUGAUGAUGCCUGAAGAGCCUUGGUUUUUUG | -2.51

Variant | polymerase ribozyme fitness (log ratio)
GACCAAUCUGCCCUCAGAGCUCGAGAACAUCUUCGGAUGCAGUGGAGGCAGGCUUCGGUGGCACGAUAGCGCCAACGUCCUCAACCUCCAAUGCGUCCCACCACAUGAUGAUGCCUGAAGAUCCUUGGUUUUUUG | -4.37
GACCAAUCUGCCCUCAGAGCUCGAGAACAUCUUCGGAUGCAGUGGAGGCAGGCUUCGGUGGCCCGAUAGCGCCAACGUCCUCAACCUCCAAUGCAUCCCACCACAUGAUGAUGCCUGAAGAGCCUUGGUUUUUUG | -2.12
GACCAAUCUGCCCUCAGAGCUCGAGAACAUCUUCGGAUGCAGUGGAGGCAGGCUUCGGUGGCCCGAUAGCGCCAACGUCCUCAACCUCCAAUGCAUCCCACCACAUGAUGAUGCCUCAAGAGCCUUGGUUUUUUG | -4.52
GACCAAUCUGCCCUCAGAGCUCGAGAACAUCUUCGGAUGCAGUGGAGGCAGGCUUCGGUGGCUCGAUAGCGCCAACGUCCUCAACCUCCAAUGCAUCCCACCACAUGAUGAUGCCUGAAGAGCCUUGGUUUUUGG | -3.02
GACCAAUCUGCCCUCAGAGCUCGAGAACAUCUUCGGAUGCAGUGGAGGCAGGCUUCGGUGGCGCGAUAGCGCCAACUUCCUCAACCUGCAAUGCAUCCCACCACAUGAUGAUGCCUGAAGAGCCUUGGUUUUUUG | -2.17
GACCAAUCUGCCCUCAGAGCUCGAGAACAUCUUCGGAUGCAGUGGAGGCAGGCUUCGGUGGCGCGAUAGCGCCAACGUCCUCAACCUCCAAUGCAUCCCACCACAUGAUCAUGCCUGAAGAGCCUUGGUUUUUUG | -5.24
GACCAAUCUGCCCUCAGAGCUCGAGAACAUCUUCGGAUGCAGUGGAGGCAGGCUUCGGUGGCGCGAUAGCGCCAACGUCCUCAACCUCCAAUGCAUCCCACCACAUGAUGAUGCCUUAAGAGCCUUGGUUUUUUG | -3.35
GACCAAUCUGCCCUCAGAGCUCGAGAACAUCUUCGGAUGCAGUGGAGGCAGGCUUCGGUGGCGCGAUAGCGCCAACGUCCUCAACCUCCAAUGCAUCCCACCACAUGAUGAUGCCUGAAAAGCCUUAGCUUUUUG | -3.11
GACCAAUCUGCCCUCAGAGCUCGAGAACAUCUUCGGAUGCAGUGGAGGCAGGCUACGGUGGCGCGAUAGCGACAACGUCCUCAACCUCCAAUGCAUCCCACCACAUGAUGAUGCCUGAAGAGCCUUAGUUUUUUG | -2.75
GACCAAUCUGCCCUCAGAGCUCGAGAACAUCUUCGGAUGCAGUGGAGGCAGGCUACGGUGGCGCGAUAGCGCCAACGUCCUCAACCUCCAAUGCAUCCCACCACAUGAUGAUGCCUGAAGAGCCUUAGUUUUUUG | -3.12
GACCAAUCUGCCCUCAGAGCUCGAGAACAUCUUCGGAUGCAGUGGAGGCAGGCUUCGGUGGCGCGAUAGCGCCAACGUCCUCAACCACCAAUGCAUCCCACCACAUGAUAAUGCCUGAAGAGCCUUGGUUUUUUG | -4.16
GACCAAUCUGCCCUCAGAGCUCGAGAACAUCUUCGGAUGCAGUGGAGGCAGGCUUCGGUGGCGCGAUAGCGCCAACGUCCUCAACCGCCACUGCGUCCCACCACAUGAUGAUGCCUGGAGAGCCUUGGUUUUUUG | -1.27
GACCAAUCUGCCCUCAGAGCUCGAGAACAUCUUCGGAUGCAGUGGAGGCAGGCUUCGGUGGCGCGAUAGCGCCAACGUCCUCAACCUCCAAUGCAACCCACCACAUGAUGAUGCCUGAAGUGCCUUGGUUUUUUG | 0.867
GACCAAUCUGCCCUCAGAGCUCGAGAACAUCUUCGGAUGCAGUGGAGGCAGGCUUCGGUGGCGCGAUAGCGCCAACGUCCUCAACCUCCAAUGCAUCCCACCACAUGAUGACGCCUGAUGAGCCUUGGUUUUUUG | -0.989
GACCAAUCUGCCCUCAGAGCUCGAGAACAUCUUCGGAUGCAGUGGAGGCAGGCUUCGGUGGCGCGAUAGCGCCAACGUCCUCAACCUCCAAUGCAUCCCACCACAUGAUGAUGCCUGAAGAGCCUUGGUUUAUUG | -1.08
GACCAAUCUGCCCUCAGAGCUCGAGAACAUCUUCGGAUGCAGAAGGGGCAGACUUCGGUGGCGCGAUAGCGCCAACGUCCUCAACCUCCAAUGCAUCCCACCACAUGAUGAUGCCUGAAGAGACUUGGUUUUUUG | -1.71
GACCAAUCUGCCCUCAGAGCUCGAGAACAUCUUCGGAUGCAGAAGAGGCCGGCUUCGGUGGCACGAUAGCGCCAACGUCCUCAAACUCCAAUGCAUCCCACCACAUGAUGAUGCCUGAAGAGCCUUGGUUUUUUG | -4.52
GACCAAUCUGCCCUCAGAGCUCGAGAACAUCUUCGGAUGCAGAAGAGGCGGGCUUCGGUGGCGCGAUAGCGAUAACGUCCUCAACCUCCAAUGCAUCCCACCACAUGAUAAUGCCUGAAGAGCCUUGGUUUUUUG | -4.26
GACCAAUCUGCCCUCAGAGCUCGAGAACAUCUUCGGAUGCAGAAGAGGCGGGCUUCGGUGGCGCGAUAGCGCUAACGUCCUCAACCUCCAAUGCAUCCCACAACAUGAUGAUGCGUGAAGAGCCUUGGUUUUUUG | -5.62
GACCAAUCUGCCCUCAGAGCUCGAGAACAUCUUCGGAUGCAGAAGAGGCAGGCUUCGGUGGCGCGAUAGCGCCAACGUCCUCAACCUCCAAUGCAUCCCACCACAUGAUGCUGCCUGAAGAGCCUUGGUUGUUUG | -2.35
GACCAAUCUGCCCUCAGAGCUCGAGAACAUCUUCGGAUGCAGAAGAGGCAGGCUUCGGUGGCGCGAUAGCGCCAACGUCCUCAACCUCCAAUGCAUCCCACCACAUGAUGGUGCCUGAAGAGCCUUGGUUUUUUG | -0.69
